Data from US20080193979A1.

Molecular target: streptavidin (UniProt P22629)
Assay: recovery of cells on streptavidin coated magnetic beads (Dynal)

Chain of streptavidin (P22629 37-163 limits assumed): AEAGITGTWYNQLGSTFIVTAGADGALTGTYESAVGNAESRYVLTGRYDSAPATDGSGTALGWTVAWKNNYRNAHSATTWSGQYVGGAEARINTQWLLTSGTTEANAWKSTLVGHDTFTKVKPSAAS

proportion of cells which bind to the beads: 0.02%
Substance: Ramos IgM (unselected / wild-type Ramos cells, surface and secreted IgM) (antibody)
